According to paper doi:10.1101/2023.07.25.550521:

Experiments:
[1] = biological target: MADD (DENN/MADD, RAB3-GEP) (UniProt Q8WXG6); test: GFP-Trap co-IP, HA blot; settings: reference: wild type; sites T86
RAB-GDI1 = RAB-GDI1 (UniProt P31150); test: GFP-Trap co-IP, RAB-GDI1 blot; settings: reference: wild type; sites T86

binding against the reference [1]: stronger | binding against the reference (RAB-GDI1): stronger
Substance: RAB3A (from UniProt P20336) T86A
